How the values were obtained:
[1] = biological target: human D-glucuronyl C5-epimerase Glce^167-617 (human); assay: SEC; Superdex 200 10/300 GL, 18 C, 20 mM Tris-HCl pH 8.0, 200 mM NaCl, 1 mM DTT, 100 ug loaded, calibrated with gel filtration standard; apparent molecular weight
[2] = biological target: human D-glucuronyl C5-epimerase Glce^167-617 (human); assay: crystal structure; apo Glce^167-617, sitting-drop vapour diffusion at 20 C, 0.2 M ammonium sulfate, 0.1 M Tris pH 8.5, 22% PEG 3,350; space group C 1 2 1, two molecules in the asymmetric unit; 2.88 A
[3] = biological target: human D-glucuronyl C5-epimerase Glce^167-617 (human); assay: dynamic light scattering; DynaPro NanoStar, room temperature, 2 uM Glce^167-617; hydrodynamic radius turned into an estimated molecular weight

Measured: stoichiometry N

human D-glucuronyl C5-epimerase Glce^167-617 (domain or fragment)
2: all assays above
